From patent publication US20180092975A1 come the findings set out here.

Test [1] addresses cyno PD-1 expressed on cells (cynomolgus monkey) (UniProt B0LAJ3). As to the kind of experiment: flow cytometry on CHO cells expressing cyno PD-1, detection with anti-human IgG Fc, PE GeoMFI. Set-up: unit not given here. A general note: In flow cytometry, cells or beads pass a laser one at a time.
For test [2], the target named is human PD-1 expressed on cells (human) (UniProt Q15116). As to the kind of experiment: flow cytometry on CHO cells expressing human PD-1, detection with anti-human IgG Fc, PE GeoMFI. Set-up: unit not given here.
UniProt Q15116, sequence (Q15116 25-198 limits assumed): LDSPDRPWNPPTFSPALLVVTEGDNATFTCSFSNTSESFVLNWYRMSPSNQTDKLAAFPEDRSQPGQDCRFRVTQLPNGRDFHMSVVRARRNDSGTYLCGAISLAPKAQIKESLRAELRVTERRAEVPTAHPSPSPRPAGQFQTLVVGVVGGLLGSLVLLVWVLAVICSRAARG

UniProt B0LAJ3, sequence (B0LAJ3 entry or part of it limits assumed): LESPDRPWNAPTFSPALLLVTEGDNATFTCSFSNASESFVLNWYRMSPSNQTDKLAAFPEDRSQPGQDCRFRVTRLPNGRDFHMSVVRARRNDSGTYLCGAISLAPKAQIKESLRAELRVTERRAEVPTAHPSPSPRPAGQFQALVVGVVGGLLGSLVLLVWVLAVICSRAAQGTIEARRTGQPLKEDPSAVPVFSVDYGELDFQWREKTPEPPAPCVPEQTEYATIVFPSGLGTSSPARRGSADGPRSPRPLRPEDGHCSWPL

With huIgG1 Fc, the LogEC50 in test [1] was -6.89; in test [2], -7.75.
